From PMC10849960
Ends that are not written are not given here.

Tests used:
[1] = target: RFdiffusion de novo PTH binder (picomolar); test: affinity purification with mass spectrometry; binder-conjugated beads capture PTH from human plasma supplemented with PTH; recovery by LC-MS/MS of the N-terminal tryptic peptide; triplicates
[2] = target: RFdiffusion de novo PTH binder (picomolar); test: affinity purification with mass spectrometry; binder-conjugated magnetic beads capture the peptide from buffer; recovery by LC-MS/MS (tryptic N-terminal peptide for PTH, intact peptide for GCG); triplicates

percent recovery [1]: 43%
percent recovery [2]: 53%
Binder: SVSEIQLMHNLGKHLNSMERVEWLRKKLQDVHNF (also: fluorescently labelled, label and position not given here) [parathyroid hormone (PTH)]
